Source: patent US20240101687A1 (ABL BIO, published 2024)

Tests used:
[1] = target: T1, human IGF1R extracellular domain, His-tagged (human, UniProt P08069 31-932); assay: SPR (Biacore T200), His-tagged human IGF1R ECD captured by anti-His antibody on CM4 chip, bivalent model; F06 IgG
T1 construct: Bought (R&D Systems 391-GR or Sino Biological 10164-H08H); also called recombinant IGF1R; ECD of IGF1R
Procedure: The anti-his antibody against the His tag bound to the human IGF1R ECD as an antigen was diluted to 20 μg/ml in acetate pH4.0 buffer, and then immobilized in the reference/analytic channel of the CM4 chip to 10,000 RU as a target RU according to the amine coupling method. During capture, PBS was used as a running buffer, and the flow rate was maintained at 30 μL/min. During association/dissociation, the flow rate was 40 μL/min, and PBS was used as the running buffer. The association/dissociation was 5 minutes and 20 minutes, respectively.

[2] = target: T2, human alpha-synuclein aggregates (fibrils) (human, UniProt P37840 1-140); assay: BIAcore as in Example 4-3, α-syn aggregates
Procedure: (§1) The running buffer, analyte dilution, and the sample dilution buffer were HBS-EP. […] For the capture, the monomer was for RU of 800 (theoretical), and a fibril was for RU of 100 (theoretical). The capture phase was performed at contact time of 60 seconds, a flow rate of 30 μl/min, and a stabilization period of 180 seconds. The association phase was performed at the association time of 120 seconds and the flow rate was 30 μl/min. The dissociation phase was performed at the dissociation time of 360 seconds and the flow rate of 30 l/min. The regeneration phase was performed twice time at the regeneration time of 240 seconds (primary) and 60 seconds (secondary) and a flow rate of 30 μl/min. The fitting was carried out suing 1:1 binding model, and the evaluation software was BIACore T200 Evaluation software (GE healthcare).

[3] = target: T3, human IGF1R on cells (human, UniProt P08069 31-1367); assay: FACS on MCF-7 cells, 10 ug/mL (2nd Ab only: 2.86)
T3 construct: also called endogenous IGF1R on the cell surface (MCF-7, JIMT-1, BT474, SKBR3); IGF1R library on OVCAR3 cells
Procedure: After washing with PBS buffer containing 1% BSA, the secondary antibody bound with FITC to detect human antibodies was treated for 1 hour.

[4] = target: T2, human alpha-synuclein aggregates …; assay: SPR (BIAcore), antibody captured on Protein A chip, alpha-synuclein fibril (sample aSyn180330) as analyte, 1:1 binding fit, 25 C
Procedure: as §1

[5] = target: T2, human alpha-synuclein aggregates …; assay: sandwich ELISA, antibody coated in a dilution series, synuclein fibril aggregates at 2000 ng/ml; C of the 4-P fit, which paragraph 260 calls EC50
Procedure: Specifically, each antibody was diluted at 1/10 ratio of concentrations 0.04 to 400 nM and was coated on a 96-well plate, and then each well was treated with synuclein fibril aggregates were treated at 2000 ng/ml. After washing with 1×PBS, streptavidin conjugated with HRP and secondary antibody conjugate with biotin was treated and then reacted with TMB as a substrate. The absorbance was measured.

[6] = target: T1, human IGF1R extracellular domain, …; assay: ELISA, hIGF1R coated, minibody titrated 0.000256-20 nM, Abs. at 450 nm
Procedure: Human IGF1R was diluted with 1 ug/ml in PBS buffer, added at an amount of 100 ul per well in 96-well ELISA plate (Nunc-Immuno Plates, NUNC, Rochester, NY), coated by reacting at 4° C. for 16 hours, and then the supernatant was removed. PBS buffer containing 3% BSA (bovine serum albumin) was added to 200 ul per well and reacted for 2 hours to block non-specific binding.
After treatment, it was wash 4 times with PBS buffer containing 0.05% Tween20, and was reacted at room temperature for an hour by adding 100 ul of the anti-human HRP recognizing human Fe of the minibody diluted in blocking buffer at 1:5000 per each well. After washing 4 times with 300 ul of PBS-T (Tween20 0.05%), the color development was performed using TMB (Tetramethylbenzidine, Sigma, T0440).

B1: F06 IgG antibody (antibody, V domains shown)
VH: EVQLLESGGGLVQPGGSLRLSCAASGFTFSSYDMSWVRQAPGKGLEWVSAISYDNGNTYYADSVKGRFTISRDNSKNTLYLQMNSLRAEDTAVYYCAKGVLTTLMNWFDYWGQGTLVTVSS
VL: QSVLTQPPSASGTPGQRVTISCTGSSSNIGSNDVSWYQQLPGTAPKLLIYANSNRPSGVPDRFSGSKSGTSASLAISGLRSEDEADYYCGTWAGSLNGYVFGGGTKLTVL
For B1, the Kd [1] was 478 nM.

B2: hu11F11(ver.2) (antibody, human IgG1, kappa, V domains shown)
VH: EVQLVESGGGLVQPGGSLRLSCATSGFTFSDFYMEWVRQPPGKRLEWIAASRNKANDYTTEYSASVKGRFTVSRDDSKSSLYLQMNSLRAEDTAIYYCARDAHGKPFAYWGQGTTVTVSS
VL: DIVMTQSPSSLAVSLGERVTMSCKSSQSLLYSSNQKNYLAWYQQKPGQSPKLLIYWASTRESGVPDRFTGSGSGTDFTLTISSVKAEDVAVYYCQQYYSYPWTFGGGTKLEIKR
notes: humanized IgG1; also called Hu11F11-VH-v2 + Hu11F11-VLv3 4c
For B2, the Kd [2] was 0.0596 nM, the “GeoMean, Internalization at 37° C.” value [3] was 3.18 and the koff [4] was 0.000173 s⁻¹. For the same binder, the kon [4] was 1.19e+06 M⁻¹ s⁻¹ and the EC50 [5] was 15.1 nM.

B3: 996 minibody (Fc fusion, not shown: a dimerising Fc or GST)
chain: QSVLTQPPSASGTPGQRVTISCTGSSSNIGSNAVNWYQQLPGTAPKLLIYSNSHRPSGVPDRFSGSKSGTSASLAISGLRSEDEADYYCATWDYSLSGYVFGCGTKLTVLGGGGSGGGGSGGGGSGGGGSEVQLLESGGGLVQTGGSLRLSCAASGFTFSSYDMSWVRQAPGKCLEWVSGIYHDGSSTYYADSVQGRFTISRDNSKNTLYLQMNSLRAEDTAVYYCARVSGTLSEPYAFFFNAMDVWGQGTLVTVSS
B3 was tested, and the “EC50 (read off the curve)” value [6] was ~0.3 nM.
